Tests used:
[1] = target: T1, TFPI (tissue factor pathway inhibitor, full-length) (Homo sapiens, UniProt P10646 SEQ:1-276); assay: competition; dot-blot vs radiolabeled ARC17480, 10 nM TFPI; details: tags: American Diagnostica 4500PC/4900PC, E. coli expressed
Procedure: Each molecule was evaluated for binding to tissue factor pathway inhibitor (TFPI) in a binding-competition assay. For these experiments, 10 nM human TFPI (American Diagnostica, Stamford, Conn., catalog #4500PC) was incubated with trace amounts of radiolabeled ARC17480 and 5000 nM, 1666.67 nM, 555.56 nM, 185.19 nM, 61.73 nM, 20.58 nM, 6.86 nM, 2.29 nM, 0.76 nM or 0.25 nM of unlabeled competitor aptamer. ARC17480 was included as a competitor in every experiment as a control. For each molecule, the percentage of radiolabeled ARC17480 bound at each competitor aptamer concentration was used for analysis. The percentage of radiolabeled ARC17480 bound was plotted as a function of aptamer concentration and fit to the equation y=(max/(1+x/IC₅₀))+int, where y=the percentage of radiolabeled ARC17480 bound, x=the concentration of aptamer, max=the maximum radiolabeled ARC17480 bound, and int=the y-intercept, to generate an IC₅₀ value for binding-competition. The IC₅₀ of each aptamer was compared to the IC₅₀ of ARC17480 that was evaluated in the same experiment. A substitution was considered tolerated in the binding-competition assay if the IC₅₀ of that molecule was not more than 5-fold greater than that of ARC17480 evaluated in the same experiment. Tolerated substitutions are indicated in Table 37 as meeting the assay criteria (“yes”) or not meeting the assay criteria (“no”).

[2] = target: T1, TFPI (tissue factor pathway inhibitor, …); assay: competition; dot-blot, 10 nM TFPI; details: tags: American Diagnostica 4500PC/4900PC, E. coli expressed
Procedure: The substituted ARC17480 molecules were assayed for binding and function. The assays used for this evaluation were the calibrated automated thrombogram (CAT) assay, a dot-blot binding-competition assay and a FXa activity assay. The results of these assays are summarized in Table 40 and depicted in FIG. 147. A mutation was considered tolerated for activity if it met the criteria of at least two of the three assays that were carried out. Mutations that are tolerated (“yes”) and not tolerated (“no”) are identified in Table 40. The experimental details and the criteria used for each assay are described in the following paragraphs. The molecules described in this example were first tested in the CAT assay and the dot-blot binding-competition assay. In most cases, molecules were only tested in the FXa assay if there was a discrepancy between the results in the CAT assay and the dot-blot binding-competition assay.
Each molecule was evaluated for binding to tissue factor pathway inhibitor (TFPI) in a binding-competition assay. […] The IC₅₀ of each aptamer was compared to the IC₅₀ of ARC17480 that was evaluated in the same experiment. A mutation was considered tolerated in the binding-competition assay if the IC₅₀ of that molecule was not more than 5-fold greater than that of ARC17480 evaluated in the same experiment. […]

T1 sequence (P10646 29-304): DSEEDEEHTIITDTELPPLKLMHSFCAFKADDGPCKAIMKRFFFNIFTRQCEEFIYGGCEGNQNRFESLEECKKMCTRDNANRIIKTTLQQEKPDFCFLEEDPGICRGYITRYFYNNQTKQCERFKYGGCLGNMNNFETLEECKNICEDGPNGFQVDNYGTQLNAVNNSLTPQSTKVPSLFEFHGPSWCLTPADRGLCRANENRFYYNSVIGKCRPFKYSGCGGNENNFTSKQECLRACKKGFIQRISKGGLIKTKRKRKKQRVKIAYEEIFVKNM

| Binder | binding signal [1] [fold IC50 vs ARC17480] | binding signal [2] [fold IC50 vs ARC17480] |
| --- | --- | --- |
| GGAAUAUACUUGGCUCGUUAGGUGCGUAUAUA (XNA, 2'-OMe except dC9, dC16, dC25; 2'-OMe C14; 3' idT) [ARC18539] | ≤ 5 | – |
| AGAAUAUACUUGGCUCGUUAGGUGCGUAUAUA (XNA, 2'-OMe except dC9, dC14, dC16, dC25; 3' idT) [ARC34856] | – | ≤ 5 |

From patent US20110281938, “APTAMERS TO TISSUE FACTOR PATHWAY INHIBITOR AND THEIR USE AS BLEEDING DISORDER THERAPEUTICS” (Baxter Healthcare S.A., published 2011)
